The text below walks through data of paper PMC1919377, “Cation induced differential effect on structural and functional properties of Mycobacterium tuberculosis α-Isopropylmalate synthase” (BMC Structural Biology, 2007).

The series deals with the molecule itself. The series can be described thus: cross-linking.

B1: isolated TIM barrel domain of Mycobacterium tuberculosis α-isopropylmalate synthase (Arg47 to Phe457) (domain or fragment)
chain: RPFAEEVEPIRLRNRTWPDRVIDRAPLWCAVDLRDGNQALIDPMSPARKRRMFDLLVRMGYKEIEVGFPSASQTDFDFVREIIEQGAIPDDVTIQVLTQCRPELIERTFQACSGAPRAIVHFYNSTSILQRRVVFRANRAEVQAIATDGARKCVEQAAKYPGTQWRFEYSPESYTGTELEYAKQVCDAVGEVIAPTPERPIIFNLPATVEMTTPNVYADSIEWMSRNLANRESVILSLHPHNDRGTAVAAAELGFAAGADRIEGCLFGNGERTGNVCLVTLGLNLFSRGVDPQIDFSNIDEIRRTVEYCNQLPVHERHPYGGDLVYTAFSGSHQDAINKGLDAMKLDADAADCDVDDMLWQVPYLPIDPRDVGRTYEAVIRVNSQSGKGGVAYIMKTDHGLSLPRRLQIEF
notes: also called catalytic TIM barrel domain; Band I; not shown: histidine tag, N-terminal, cleaved
As for B1, the stoichiometry N (commonly a count of units in the complex or per binding partner) came to 2.
